# ± gives the standard deviation.
# Assay: protein stability index of a GFP-peptide fusion (GPS, HEK-293T) (PSI 1-6); higher = more stable
# Details: c terminus: a fixed tail appended
# 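Further: 24-mer peptide tiles fused after GFP, lentivirally expressed, FACS-sorted into six equal bins by GFP/DsRed ratio, decoded by Illumina sequencing, PSI is the read-weighted mean bin number.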
Sequence,protein stability index (treatment: DMSO),"protein stability index (treatment: MLN4924 1 uM, 8 h)"
FDLAKGNAGKVNLPKELPADAVNL [PLAGL1],4.41 ± 0.21,4.5 ± 0.29
AGIMLLALVCLLSCLLPSSEAKLY [SPACA3],2.94 ± 0.12,3.25 ± 0.48
LRGSYNSLHDGSDGLDGISVGSYL [LURAP1L],3.08 ± 0.24,3.1 ± 0.15
RFVQAEGRRATLQRLVEALEENEL [TRADD],3.57 ± 0.39,3.62 ± 0.37
EVLRRLTSSVSCALDEAAAALTRM [ANKRD17],2.3 ± 0.53,2.1 ± 0.3
QRALHKYSLMKRQMMSATAQNREP [SNX8],3.24 ± 0.29,3.32 ± 0.18
KMKGFGFWPAKVMQKEDNQVDVRF [ZMYND11],3.11 ± 0.39,3.11 ± 0.34
KMAVSRHLTRGRKMAHVIAACLYL [BRF1],2.81 ± 0.37,2.6 ± 0.56
DEEEEEEEEEEGRFYYSEDDHGDE [KCNA4],5.56 ± 0.14,5.55 ± 0.28
SWIKMTKLEYEEIALDLTPVIEEL [FAN1],2.83 ± 0.69,2.7 ± 0.53
CVPPSEFSEPSFITESYQTLHPIS [ETS1],2.98 ± 0.19,3.08 ± 0.16
LEFLLALYFLFADAMQLNDKWQGL [CMTM3],2.77 ± 0.45,2.8 ± 0.93
NAEMKSAMRKLWSKKVSLAGKWLY [OR4A15],3.85 ± 0.63,2.8 ± 0.85
SHEANKLQDMLDGFIKKFVLCPEC [EIF5],2.49 ± 0.74,2.65 ± 0.38
EEPSNKRVRPLARVTSLANLISPV [NET1],3.43 ± 0.47,3.44 ± 0.19
KPEAPLHLPVTFPGKDYDADRQCQ [ADAMTS4],5.05 ± 0.15,5.13 ± 0.22
DTRVYIWDPHNGDILMEFGHLFPP [WSB1],2.38 ± 0.98,2.42 ± 0.44
HLYPADFRFDKPKKSRSPASAEAP [ZNF511],3.38 ± 0.52,3.83 ± 0.45
EELEQEELNKKMTNIRLPNVPSSS [CHMP4C],5.27 ± 0.14,5.29 ± 0.15
YGYVYFRQVRDKTLKRGYFQKSLV [DENND6A],2.56 ± 0.46,2.1 ± 0.16
ETLPELKDDKDFTGTVHRIDNTTV [KCNA1],5.12 ± 0.24,5.17 ± 0.072
SWGWDLGRNRLYHDGKNQPSKTYP [SPSB1],3.65 ± 0.094,3.53 ± 0.34
SRVILEIDNARLAADDFRLKYENE [KRT15],3.62 ± 0.4,3.7 ± 0.15

Sequence,protein stability index (treatment: DMSO),"protein stability index (treatment: MLN4924 1 uM, 8 h)"
IIDSSLEDITYVLKPTFTKQQIAN [USP39],2.69 ± 0.26,2.8 ± 0.24
NPVQPIGPQTPKACDSKLTFDAIT [MMP1],4.21 ± 0.22,4.23 ± 0.22
CQDCGRAFNQNSSLGRHKRTHTGE [ZNF8],3.73 ± 0.44,3.42 ± 0.17
ALLPSLSHCSQLTTLSFYGNSISI [PRAME],3.14 ± 0.66,3.14 ± 0.35
LCKVLGVLFSVAGGLFVGKEGPMI [CLCN6],2.73 ± 0.25,2.89 ± 0.5
KAIKQKLWEALCSQGAISEGAQRD [C22orf31],2.72 ± 0.27,2.85 ± 0.065
NIQVTGSAALFYLTNSEYRSEQSV [ZER1],2.63 ± 0.24,2.84 ± 0.19
TILPQEIQSRVQELHPESGEEAVT [ZNF263],5.11 ± 0.25,5.33 ± 0.28
RPTYFEMKNEKLLSKASEPKYQLF [RNF180],2.54 ± 0.28,2.78 ± 0.19
LYLRVELSDVQNPAISITENVLHF [HACD3],2.82 ± 0.57,2.88 ± 0.64
RFGQTIQSFTLRGDHRSPASAQKF [NET1],3.14 ± 0.27,3.27 ± 0.32
EVVMNSQQTPVGTPKDKRVSNTPL [PALM],3.44 ± 0.2,3.61 ± 0.2
CMVEIVQKYDPDKDEWHKVFDLPE [KLHL13],2.52 ± 0.27,2.59 ± 0.24
RAPGAGLGQDRQVPLWGQLLLFLV [EMD],2.49 ± 0.17,2.09 ± 0.37
ENHEIYMKDSMSAAEVGTGQYATT [EPB41L3],4.79 ± 0.22,4.83 ± 0.3
GVTGWCTGFIFQKVGKLAATAVGG [FUNDC2],2.17 ± 0.048,2.48 ± 0.74
ACDLQPCPTEPPDDSCQDQPGTNC [ADAMTSL2],5.49 ± 0.34,5.51 ± 0.39
SRPAVGPPQPGCPAFIIVKLSPLR [ZSWIM9],2.59 ± 0.19,2.33 ± 0.15
AEEIRIKGKYNISSEDYRQLELVI [KCNK9],2.25 ± 0.2,2.05 ± 0.38
QEYFERHRWPPVWYLKEEDHYQRV [RHOBTB1],3.08 ± 0.24,3.08 ± 0.1
DNWKSQVEPETRAVIRWMHSFNFV [CPN1],2.26 ± 0.52,2.23 ± 0.14
PHTVLDRQLLCLIDYYESKIRKIH [CEP70],2.46 ± 0.34,2.28 ± 0.19
DEDAGLPRPVQLDETHPYTVTSVS [NEK8],5.12 ± 0.19,5.23 ± 0.18

Sequence,protein stability index (treatment: DMSO),"protein stability index (treatment: MLN4924 1 uM, 8 h)"
LELPEDEEEKKKMEESKAKFENLC [HSP90AB1],5.46 ± 0.42,5.3 ± 0.33
TCTDRSGISTGHWSGEVKDKNVQV [FUT8],4.51 ± 0.21,4.49 ± 0.16
IHKGEKPYQCSQCSKSYSRRSFLI [ZSCAN9],2.46 ± 0.75,2.12 ± 0.42
LWWDPIQRLLFSGASDNSIIMWDI [WDFY1],2.65 ± 0.54,2.69 ± 0.83
ASLTIPLVPETEDDRKLAALLKFH [YJU2B],3.05 ± 0.24,3.41 ± 0.24
LEGALHQAKEELARMLREYQELMS [KRT71],2.98 ± 0.3,3.48 ± 0.46
EGTFRPERLLAVAERYGLSGSDVL [RAD51],3.23 ± 0.18,3.45 ± 0.11
AAQDRPMSPGDCPPETTETPKCSS [YJU2B],5.54 ± 0.24,5.3 ± 0.34
LGRMFGSGREHNFTRPNEKGEYEV [BTBD10],3.95 ± 0.08,3.98 ± 0.25
VGELLPCKICGRTFFPVALKKHGP [ZC2HC1A],2.84 ± 0.51,2.57 ± 0.19
RGFVFGGRYRDARMNDLHYLNLDT [KLHDC2],2.71 ± 0.33,2.59 ± 0.35
TLDGRTPLHLAAQRGHYRVARILI [RIPK4],1.97 ± 0.44,1.92 ± 0.36
EVLRSEAGIELIIEDDIRPEKQKR [MYBL2],4.21 ± 0.24,4.31 ± 0.34
FYQHLLLYIQSHYQLELQCCIDWT [SMG5],3.17 ± 0.36,3.02 ± 0.38
HLFLLGYSDGADDTFAAYTREQLY [MCOLN1],2.08 ± 0.29,2.35 ± 0.18
TMGAVVLSSTLLSFSTAIGRTCIT [MFSD9],2.98 ± 0.48,3.22 ± 0.29
GEARFLPKDLDPSLCTHLIYAFAG [CHIT1],2.36 ± 0.27,2.44 ± 0.49
MVFPAKRFCLVPSMEGVRWAFSCG [AASDHPPT],2.74 ± 0.79,2.77 ± 0.72
RIHVGKKYGDIPRGIFVVRGENVV [LSM1],2.37 ± 0.17,2.24 ± 0.15
GDDGIVVVWNAQTGEKLLELNGHT [WDR41],3.39 ± 0.11,3.3 ± 0.35
RSPIIDVKNDRDRVGHKSIPMRNL [SERPINB5],3.83 ± 0.13,4 ± 0.36
TDGLQEVPLCSCRMETPKSREITT [EHMT1],3.21 ± 0.25,3.07 ± 0.26
HPLPTVIIVNLLWFIHLVFVVLAF [TMEM192],3.37 ± 0.063,3.02 ± 0.7

Sequence,protein stability index (treatment: DMSO),"protein stability index (treatment: MLN4924 1 uM, 8 h)"
FSIPPWRYDAEVVAIAQKFAALRA [MYORG],2.15 ± 0.3,2.22 ± 0.17
FHNLRNTLDGYGIHPKSIDLDNYF [NFE2L1],2.31 ± 0.44,2.07 ± 0.15
AVLEYLYTGMFTSSPDLDDMKLII [RHOBTB2],2.68 ± 0.6,2.53 ± 0.3
HPDIFLPSEICDRLVNEYVELVNA [ZER1],2.56 ± 0.17,2.97 ± 0.35
GATVRSFSINSRLASSLGNLNAAT [CDC14A],2.98 ± 0.1,2.92 ± 0.21
WEEEKALWVEERALLEGEKALWED [CCDC70],5.07 ± 0.28,5.22 ± 0.13
LTEQVWKVQDALQNQSDSLLALAG [SCARA5],3.65 ± 0.16,3.82 ± 0.37
LSIINFFERLCLTWMFFFMMCVAE [PHTF1],3.41 ± 1.2,2.81 ± 0.2
PLYTLIDVLKYSYVRLVCKDVRAP [ZSWIM9],2.84 ± 0.25,3.02 ± 0.63
IEIEDEAEKWQKEKDRIKSFTTNE [TRIM29],4.94 ± 0.17,4.96 ± 0.16
TALVGLRQNLSKSWLDVQVSNTYV [TPD52L3],2.39 ± 0.96,2.19 ± 0.53
NDSDHQSSTSPLMEGTPTIKSKKK [VPS39],5.45 ± 0.26,5.57 ± 0.25
NSISSDKEATVPCTEILTEKKDTI [MIA2],5.29 ± 0.28,5.06 ± 0.21
GLVLLKHALGSPEKVKACQGQYET [TBC1D10A],2.74 ± 0.33,2.94 ± 0.047
DYHLLHPVENIPEIILYWKHSTIF [SLC25A25],2.71 ± 0.46,2.76 ± 0.63
EANSAKVQEDLEAEFQSLFSLLEE [FSD1],5.02 ± 0.09,5.05 ± 0.12
LHSSILTCTLLLLYSLAPTMGAVV [MFSD9],3.36 ± 0.4,2.94 ± 0.24
YINLLNYMDRFTVAGVLPDIEQFF [SPNS1],2.93 ± 0.63,2.84 ± 0.64
MRNLKASLENSLREVEARYALQME [KRT18],3.22 ± 0.12,3.25 ± 0.38
ETAVEGDPSGVSGATVGRKSRRSR [C18orf25],5.484 ± 0.04,5.5 ± 0.25
